# Test results as given in patent US20250041437A1, “HUMANIZED MUC1 ANTIBODY AND ANTIBODY DRUG CONJUGATE” (Sun Pharma Advanced Research Company Limited, priority 2023, published 2025).
# T1: MUC1-X-FL-1118 (R1108A, E1109A, N1113A, E1118A) (Homo sapiens, UniProt P15941, E1109A/E1118A/N1113A/R1108A)
# T1 construct: wild-type MUC1-X extracellular domain (MUC1-X-FL-WT); His (implied by Ni-NTA purification; pET30a(+) vector); made in house; host or cells: E. coli (pET30a(+))
# T1 sequence (P15941 24-115 isoform P15941-8 limits assumed): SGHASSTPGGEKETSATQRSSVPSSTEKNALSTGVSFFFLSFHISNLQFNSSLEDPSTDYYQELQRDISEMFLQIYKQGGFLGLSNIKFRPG
# T1 sequence (P15941 1098-1158 R1108A/E1109A/N1113A/E1118A limits assumed): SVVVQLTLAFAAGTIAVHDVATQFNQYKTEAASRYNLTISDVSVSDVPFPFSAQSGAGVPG
# T2: MUC1-X-FL-1116 (R1108A, E1109A, N1113A, D1116A) (Homo sapiens, UniProt P15941, D1116A/E1109A/N1113A/R1108A)
# T2 construct: wild-type MUC1-X extracellular domain (MUC1-X-FL-WT); His (implied by Ni-NTA purification; pET30a(+) vector); made in house; host or cells: E. coli (pET30a(+))
# T2 sequence (P15941 24-115 isoform P15941-8 limits assumed): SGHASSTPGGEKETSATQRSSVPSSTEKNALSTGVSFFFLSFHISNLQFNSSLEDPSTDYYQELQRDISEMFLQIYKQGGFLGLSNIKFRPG
# T2 sequence (P15941 1098-1158 R1108A/E1109A/N1113A/D1116A limits assumed): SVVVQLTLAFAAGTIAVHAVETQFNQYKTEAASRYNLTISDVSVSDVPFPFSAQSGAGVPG
# T3: recombinant human MUC1-SEA (Homo sapiens, UniProt P15941)
# T3 construct: on recombinant human MUC1-SEA on SPR; purchased Acrobiosystems MU1-H52H9
# T3 sequence (P15941 1039-1148 limits assumed): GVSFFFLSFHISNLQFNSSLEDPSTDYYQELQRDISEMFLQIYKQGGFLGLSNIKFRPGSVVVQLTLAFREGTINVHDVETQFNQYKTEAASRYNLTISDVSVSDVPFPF
# Experiments:
# [1] = biological target: T1, MUC1-X-FL-1118 (R1108A, E1109A, N1113A, E1118A); assay: Epitope mapping ELISA, mutant MUC1-X-FL-1118; assay type: binding; settings: mutation at position 1118
# [2] = biological target: T2, MUC1-X-FL-1116 (R1108A, E1109A, N1113A, D1116A); assay: Epitope mapping ELISA, mutant MUC1-X-FL-1116; assay type: binding; settings: mutation at position 1116
# [3] = biological target: T3, recombinant human MUC1-SEA; assay: Binding strength by Surface Plasmon Resonance (SPR); settings: Table 2, variants of humanized anti-MUC1 5F3 mAb
# Experimental: Binding strength assessment using Surface Plasmon Resonance (SPR): MUC1 antigen (Acrobiosystems, Cat: MU1-H52H9) was captured on the anti-His immobilized on CM5 chip at 5 μl/min flow rate for 60 s. Post this concentration range of 0-50 nM of antibody or ADC is passed over MUC1 antigen at a flow rate of 30 μl/min flow rate for 120 s, keeping dissociation time of 1800 s at 25°. The dose response generated is evaluated on BIAevaluation software for the calculation of affinity of antibody to antigen as measured by dissociation constant (KD).
Molecule,binding to MUC1 mutant (in words) [1],binding to MUC1 mutant (in words) [2],ka [3] [M⁻¹ s⁻¹]
"chi 5F3: chimeric anti-MUC1 SEA antibody of WO 2021/186427; variable regions SEQ ID NOs: 42 and 43; parent of the humanized antibodies (antibody, V domains shown, chimeric anti-MUC1 SEA antibody of WO 2021/186427; parent of the humanized antibodies) VH: MRVLILLCLFTAFPGVLSDVQVQESGPDLVKPSQSLSLTCTVTGHSITRGSSWHWIRQFPGNKLEWMGYIHYGGGTSYNPSLKSRISITRDTSKNQFFLQLNSVTTEDTATFFCARYSYDITYRWFFDVWGAGTTVIVSS VL: MVSTPQFLVFLLFWIPASRGDILLTQSPAILSVSPGERVSFSCRASQNIGTSIHWYQQRKNGSPRLLIKYASESISGIPSRFSGSGSGTDFTLSINSVESEDMADYYCQQNNNWPLTFGAGTKLELK",lost,maintained,4.39e+06
"HM3 LM3: variant of SP66; VH HM3 SEQ ID NO: 9, VL LM3 SEQ ID NO: 14 (antibody, V domains shown) VH: EIQLVQSGAEVKKPGSSVKVSCKVTGHSITRGSSWHWMRQAPGQGLEWIGYIHYGGGTSYNPSLKSRATLTRDTSTNTAYMELSSLRSEDTAFYFCARYSYDITYRWFFDVWGQGTLVTVSS VL: DIQMTQSPSTLSASVGDRVTITCRASQNIGTSIHWYQQKPGKAPKLLIKYASESISGVPSRFSGSGSGTEFTLTISSLQPDDFATYYCQQNNNWPLTFGQGTKVEVK",–,–,4.47e+07
"HM4 LM3: variant of SP66; VH HM4 SEQ ID NO: 10, VL LM3 SEQ ID NO: 14 (antibody, V domains shown) VH: EIQLVQSGAEVKKPGSSVKVSCKVTGHSITRGSSWHWMRQAPGQGLEWIGYIHYGGGTSYNPSLKSRATLTRDTSTNTFYMELSSLRSEDTAFYFCARYSYDITYRWFFDVWGQGTLVTVSS VL: DIQMTQSPSTLSASVGDRVTITCRASQNIGTSIHWYQQKPGKAPKLLIKYASESISGVPSRFSGSGSGTEFTLTISSLQPDDFATYYCQQNNNWPLTFGQGTKVEVK",–,–,2.88e+06
"HM5 LM3: variant of SP66; VH HM5 SEQ ID NO: 11, VL LM3 SEQ ID NO: 14 (antibody, V domains shown) VH: EIQLVQSGAEVKKPGSSVKVSCKVTGHSITRGSSWHWMRQAPGQGLEWIGYIHYGGGTSYNPSLKSRITITRDTSTNTFYMELSSLRSEDTAFYFCARYSYDITYRWFFDVWGQGTLVTVSS VL: DIQMTQSPSTLSASVGDRVTITCRASQNIGTSIHWYQQKPGKAPKLLIKYASESISGVPSRFSGSGSGTEFTLTISSLQPDDFATYYCQQNNNWPLTFGQGTKVEVK",–,–,3.97e+06
"HM4 LM2: variant of SP66; VH HM4 SEQ ID NO: 10, VL LM2 SEQ ID NO: 13 (antibody, V domains shown) VH: EIQLVQSGAEVKKPGSSVKVSCKVTGHSITRGSSWHWMRQAPGQGLEWIGYIHYGGGTSYNPSLKSRATLTRDTSTNTFYMELSSLRSEDTAFYFCARYSYDITYRWFFDVWGQGTLVTVSS VL: DIQMTQSPSTLSASVGDRVTITCRASQNIGTSIHWYQQKPGKAPKLLIKRASESISGVPSRFSGSGSGTEFTLTISSLQPDDFATYYCQQNNNWPLTFGQGTKVEVK",–,–,4.08e+06
"HM2 LM2: variant of SP66; VH HM2 SEQ ID NO: 8, VL LM2 SEQ ID NO: 13 (antibody, V domains shown) VH: EIQLVQSGAEVKKPGSSVKVSCKVTGHSITRGSSWHWMRQAPGQGLEWIGYIHYGGGTSYNPSLKSRITITRDTSTNTAYMELSSLRSEDTAFYFCARYSYDITYRWFFDVWGQGTLVTVSS VL: DIQMTQSPSTLSASVGDRVTITCRASQNIGTSIHWYQQKPGKAPKLLIKRASESISGVPSRFSGSGSGTEFTLTISSLQPDDFATYYCQQNNNWPLTFGQGTKVEVK",–,–,1.77e+06
"HM2 LM3: variant of SP66; VH HM2 SEQ ID NO: 8, VL LM3 SEQ ID NO: 14 (antibody, V domains shown) VH: EIQLVQSGAEVKKPGSSVKVSCKVTGHSITRGSSWHWMRQAPGQGLEWIGYIHYGGGTSYNPSLKSRITITRDTSTNTAYMELSSLRSEDTAFYFCARYSYDITYRWFFDVWGQGTLVTVSS VL: DIQMTQSPSTLSASVGDRVTITCRASQNIGTSIHWYQQKPGKAPKLLIKYASESISGVPSRFSGSGSGTEFTLTISSLQPDDFATYYCQQNNNWPLTFGQGTKVEVK",–,–,3.14e+06
"HM5 LM2: variant of SP66; VH HM5 SEQ ID NO: 11, VL LM2 SEQ ID NO: 13 (antibody, V domains shown) VH: EIQLVQSGAEVKKPGSSVKVSCKVTGHSITRGSSWHWMRQAPGQGLEWIGYIHYGGGTSYNPSLKSRITITRDTSTNTFYMELSSLRSEDTAFYFCARYSYDITYRWFFDVWGQGTLVTVSS VL: DIQMTQSPSTLSASVGDRVTITCRASQNIGTSIHWYQQKPGKAPKLLIKRASESISGVPSRFSGSGSGTEFTLTISSLQPDDFATYYCQQNNNWPLTFGQGTKVEVK",–,–,4.8e+06
"HM3 LM2: variant of SP66; VH HM3 SEQ ID NO: 9, VL LM2 SEQ ID NO: 13 (antibody, V domains shown) VH: EIQLVQSGAEVKKPGSSVKVSCKVTGHSITRGSSWHWMRQAPGQGLEWIGYIHYGGGTSYNPSLKSRATLTRDTSTNTAYMELSSLRSEDTAFYFCARYSYDITYRWFFDVWGQGTLVTVSS VL: DIQMTQSPSTLSASVGDRVTITCRASQNIGTSIHWYQQKPGKAPKLLIKRASESISGVPSRFSGSGSGTEFTLTISSLQPDDFATYYCQQNNNWPLTFGQGTKVEVK",–,–,2.65e+06
